From patent US20250276018A1 (AFFYIMMUNE THERAPEUTICS, published 2025)
Positions count from the first letter of the chain named. In names and notes the source's numbering stands.

B1: Affy6-I3F CAR (other)
chain: GSEQKLISEEDLGSQVQLVQSGAEVKKPGASVKVSCKASGYIFTAYTMHWVRQAPGQGLEWMGWIKPNNGLANYAQKFQGRVTMTRDTSISTAYMELSRLRSDDTAVYYCARSEFTTEFDYWGQGTLVTVSSGGGGSGGGGSGGGGSDIVLTQSPDSLAVSLGERATINCKSSESVDSYANSFMHWYQQKPGQPPKLLIYRASTRESGVPDRFSGSGSRTDFTLTISSLQAEDVAVYYCQQSKEDPLTFGGGTKVEIKASTTTPAPRPPTPAPTIASQPLSLRPEACRPAAGGAVHTRGLDFACDFWVLVVVGGVLACYSLLVTVAFIIFWVRSKRSRLLHSDYMNMTPRRPGPTRKHYQPYAPPRDFAAYRSLRVKFSRSADAPAYQQGQNQLYNELNLGRREEYDVLDKRRGRDPEMGGKPRRKNPQEGLYNELQKDKMAEAYSEIGMKGERRRGKGHDGLYQGLSTATKDTYDALHMQALPPR
notes: CAR on transduced human T cells; I to F in HC CDR3; P2A remnant not included; also called MycT-Affy6-I3F CAR-SSTR2
B2: Affy6-I3W CAR (other)
chain: B1 chain with F115W
notes: CAR on transduced human T cells; I to W in HC CDR3; P2A remnant not included; also called MycT-Affy6-I3W CAR-SSTR2
B3: Affy6-I3G CAR (other)
chain: B1 chain with F115G
notes: CAR on transduced human T cells; I to G in HC CDR3; P2A remnant not included; also called MycT-Affy6-I3G CAR-SSTR2

These binders were tested against T1, c-MET on human target cells (human, UniProt P08581 25-1390) (assay: cell-based or functional assay).
T1 sequence (P08581 25-1390): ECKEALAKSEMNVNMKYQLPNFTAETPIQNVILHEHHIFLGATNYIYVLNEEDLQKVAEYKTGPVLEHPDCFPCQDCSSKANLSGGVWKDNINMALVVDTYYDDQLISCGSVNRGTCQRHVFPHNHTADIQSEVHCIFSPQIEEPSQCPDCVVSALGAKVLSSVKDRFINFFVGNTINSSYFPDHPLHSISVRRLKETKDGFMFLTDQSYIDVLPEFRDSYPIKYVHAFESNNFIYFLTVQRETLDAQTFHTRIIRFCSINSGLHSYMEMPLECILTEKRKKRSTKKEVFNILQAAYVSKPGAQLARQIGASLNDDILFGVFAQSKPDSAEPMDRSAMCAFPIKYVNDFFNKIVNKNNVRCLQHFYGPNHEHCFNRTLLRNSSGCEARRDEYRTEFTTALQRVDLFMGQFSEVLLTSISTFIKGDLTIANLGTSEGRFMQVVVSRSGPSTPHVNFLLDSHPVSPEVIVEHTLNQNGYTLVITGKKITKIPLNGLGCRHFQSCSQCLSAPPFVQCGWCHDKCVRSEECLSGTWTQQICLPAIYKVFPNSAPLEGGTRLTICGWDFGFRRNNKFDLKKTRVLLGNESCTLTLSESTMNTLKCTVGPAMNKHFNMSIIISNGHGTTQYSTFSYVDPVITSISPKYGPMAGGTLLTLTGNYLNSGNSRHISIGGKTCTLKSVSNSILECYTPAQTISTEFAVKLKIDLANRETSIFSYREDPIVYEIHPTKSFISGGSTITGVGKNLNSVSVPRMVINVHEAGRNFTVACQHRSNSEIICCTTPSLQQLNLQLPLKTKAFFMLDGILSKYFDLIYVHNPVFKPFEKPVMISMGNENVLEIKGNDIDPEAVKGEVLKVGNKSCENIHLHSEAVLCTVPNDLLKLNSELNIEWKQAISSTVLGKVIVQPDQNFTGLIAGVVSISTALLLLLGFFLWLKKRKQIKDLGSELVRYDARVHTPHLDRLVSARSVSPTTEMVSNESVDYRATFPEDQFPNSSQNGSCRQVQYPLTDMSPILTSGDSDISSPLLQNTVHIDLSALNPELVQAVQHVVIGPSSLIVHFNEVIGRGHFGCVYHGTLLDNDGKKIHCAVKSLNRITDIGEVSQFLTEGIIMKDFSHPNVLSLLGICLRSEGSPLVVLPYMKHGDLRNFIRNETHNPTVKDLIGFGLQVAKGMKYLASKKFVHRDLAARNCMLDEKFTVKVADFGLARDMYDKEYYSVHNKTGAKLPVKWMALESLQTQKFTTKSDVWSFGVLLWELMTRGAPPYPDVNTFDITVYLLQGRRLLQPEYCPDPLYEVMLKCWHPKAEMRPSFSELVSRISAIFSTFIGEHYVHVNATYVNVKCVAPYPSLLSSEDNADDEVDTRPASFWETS
With B1 the “cytotoxicity, Normal Human Colon Cells, 8 hrs” value was 13.2, the “cytotoxicity, Normal Human Colon Cells, 16 hrs” value was 19.2 and the “cytotoxicity, Normal Human Colon Cells, 24 hrs” value was 22.4. For the same binder, the “cytotoxicity, Normal Human Colon Cells, 32 hrs” value was 13.3, the “cytotoxicity, Normal Human Colon Cells, 40 hrs” value was 1.6 and the “cytotoxicity, Normal Human Colon Cells, 48 hrs” value was 8.3.
B2 was tested, and the “cytotoxicity, Normal Human Colon Cells, 8 hrs” value was 18.8, the “cytotoxicity, Normal Human Colon Cells, 16 hrs” value was 22.7 and the “cytotoxicity, Normal Human Colon Cells, 24 hrs” value was 27. For the same binder, the “cytotoxicity, Normal Human Colon Cells, 32 hrs” value was 29.9, the “cytotoxicity, Normal Human Colon Cells, 40 hrs” value was 30.9 and the “cytotoxicity, Normal Human Colon Cells, 48 hrs” value was 38.6.
B3 was tested, and the “cytotoxicity, Normal Human Colon Cells, 8 hrs” value was 8.2, the “cytotoxicity, Normal Human Colon Cells, 16 hrs” value was 14.4 and the “cytotoxicity, Normal Human Colon Cells, 24 hrs” value was 16.4. The “cytotoxicity, Normal Human Colon Cells, 32 hrs” value was 11.4, the “cytotoxicity, Normal Human Colon Cells, 40 hrs” value was 2 and the “cytotoxicity, Normal Human Colon Cells, 48 hrs” value was 10.7.

Target: T1, c-MET on human target cells
Assay: cell-based or functional assay
Remark: another data set of the same source
B1 was tested, and the “cytotoxicity, Normal Human Lung Cells, 8 hrs” value was 17.1, the “cytotoxicity, Normal Human Lung Cells, 16 hrs” value was 16.4 and the “cytotoxicity, Normal Human Lung Cells, 24 hrs” value was 19.1. For the same binder, the “cytotoxicity, Normal Human Lung Cells, 32 hrs” value was 18, the “cytotoxicity, Normal Human Lung Cells, 40 hrs” value was 29.4 and the “cytotoxicity, Normal Human Lung Cells, 48 hrs” value was 34.8.
B2 was tested, and the “cytotoxicity, Normal Human Lung Cells, 8 hrs” value was 14.3, the “cytotoxicity, Normal Human Lung Cells, 16 hrs” value was 20.9 and the “cytotoxicity, Normal Human Lung Cells, 24 hrs” value was 30.6. The “cytotoxicity, Normal Human Lung Cells, 32 hrs” value was 34, the “cytotoxicity, Normal Human Lung Cells, 40 hrs” value was 41.2 and the “cytotoxicity, Normal Human Lung Cells, 48 hrs” value was 42.7.
For B3, the “cytotoxicity, Normal Human Lung Cells, 8 hrs” value was 14.8, the “cytotoxicity, Normal Human Lung Cells, 16 hrs” value was 17.3 and the “cytotoxicity, Normal Human Lung Cells, 24 hrs” value was 19.5. The “cytotoxicity, Normal Human Lung Cells, 32 hrs” value was 18.4, the “cytotoxicity, Normal Human Lung Cells, 40 hrs” value was 28 and the “cytotoxicity, Normal Human Lung Cells, 48 hrs” value was 33.1.

Target: T1, c-MET on human target cells
Assay: cell-based or functional assay
Remark: another data set of the same source
B1 was tested, and the “percent cytotoxicity, H1993, 24 hrs” value was 64.7%, the “percent cytotoxicity, H1993, 48 hrs” value was 91.3% and the “percent cytotoxicity, H1993, 72 hrs” value was 97%.
With B2 the “percent cytotoxicity, H1993, 24 hrs” value was 74.9%, the “percent cytotoxicity, H1993, 48 hrs” value was 93.5% and the “percent cytotoxicity, H1993, 72 hrs” value was 98.2%.
For B3, the “percent cytotoxicity, H1993, 24 hrs” value was 32.5%, the “percent cytotoxicity, H1993, 48 hrs” value was 68.1% and the “percent cytotoxicity, H1993, 72 hrs” value was 81.6%.

The binders below were run against T2, AF647 labeled c-met protein (UniProt P08581 25-932, limits assumed, labeled with AlexaFluor 647 (AF647)) (assay: flow cytometry, AF647-labeled c-met protein titrated on CAR-T cells (Round 2)).
T2 construct: Soluble labeled c-met protein titrated on CAR-T cells
T2 sequence (P08581 25-932 limits assumed): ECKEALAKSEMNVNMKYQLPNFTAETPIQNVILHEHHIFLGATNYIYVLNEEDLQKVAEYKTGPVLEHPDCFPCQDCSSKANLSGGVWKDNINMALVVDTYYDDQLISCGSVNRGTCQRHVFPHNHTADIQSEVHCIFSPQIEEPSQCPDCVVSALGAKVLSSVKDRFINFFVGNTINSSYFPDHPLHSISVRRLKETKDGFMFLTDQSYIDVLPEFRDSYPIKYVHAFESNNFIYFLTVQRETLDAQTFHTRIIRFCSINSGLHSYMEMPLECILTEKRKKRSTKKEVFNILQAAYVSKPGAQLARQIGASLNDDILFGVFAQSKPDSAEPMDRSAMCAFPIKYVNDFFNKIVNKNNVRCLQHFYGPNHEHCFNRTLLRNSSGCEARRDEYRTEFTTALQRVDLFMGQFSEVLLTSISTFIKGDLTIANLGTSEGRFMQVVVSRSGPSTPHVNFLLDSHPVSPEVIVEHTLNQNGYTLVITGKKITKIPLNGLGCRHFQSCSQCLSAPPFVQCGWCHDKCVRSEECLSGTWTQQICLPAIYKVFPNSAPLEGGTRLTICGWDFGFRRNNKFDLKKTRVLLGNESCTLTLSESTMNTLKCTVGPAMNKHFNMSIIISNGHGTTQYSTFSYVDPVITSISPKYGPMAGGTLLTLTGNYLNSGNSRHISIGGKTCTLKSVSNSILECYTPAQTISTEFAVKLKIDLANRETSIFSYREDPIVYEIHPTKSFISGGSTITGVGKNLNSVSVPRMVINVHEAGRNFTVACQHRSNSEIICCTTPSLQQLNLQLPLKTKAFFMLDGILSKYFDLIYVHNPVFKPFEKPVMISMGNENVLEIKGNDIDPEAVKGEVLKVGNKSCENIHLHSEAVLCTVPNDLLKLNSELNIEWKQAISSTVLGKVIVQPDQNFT
Description: (§1) Binding of labeled c-MET to CAR-T cells expressing the affinity tuned c-MET scFvs was evaluated by transducing lentivirus anti-c-MET CAR particles into human T cells to form c-MET CAR-T cells incubated with AF647-labeled c-MET. […] Following a 48 hr. incubation at 37° C., the culture media was brought up to […] per well and incubated at 37° C. for 10 days.
(§2) Cells were stained on ice for 30 mins and then washed with PBS. After washing, residually bound protein on CAR T cells were measured on a flow cytometer (Beckman, CytoFLEX®). The resulting binding data was fit using a non-linear regression analysis on GraphPad Prism to calculate half effective dose concentration (EC₅₀) values. The results of this analysis are shown in FIGS. 2-5 and Tables 2-5 below.
B1 showed an EC50 of 20.5 µM.
Work on B2 yielded an EC50 of 3.6 µM.
For B3, the EC50 was 151 µM.

Target: T1, c-MET on human target cells
Assay: cell-based or functional assay
Remark: another data set of the same source
With B1 the “cytotoxicity, Normal Human Kidney Cells, 8 hrs” value was 19.2, the “cytotoxicity, Normal Human Kidney Cells, 16 hrs” value was 28 and the “cytotoxicity, Normal Human Kidney Cells, 24 hrs” value was 30.4. For the same binder, the “cytotoxicity, Normal Human Kidney Cells, 32 hrs” value was 27.8, the “cytotoxicity, Normal Human Kidney Cells, 40 hrs” value was 18.8 and the “cytotoxicity, Normal Human Kidney Cells, 48 hrs” value was 16.5.
With B2 the “cytotoxicity, Normal Human Kidney Cells, 8 hrs” value was 23.6, the “cytotoxicity, Normal Human Kidney Cells, 16 hrs” value was 39.4 and the “cytotoxicity, Normal Human Kidney Cells, 24 hrs” value was 46. For the same binder, the “cytotoxicity, Normal Human Kidney Cells, 32 hrs” value was 48.6, the “cytotoxicity, Normal Human Kidney Cells, 40 hrs” value was 43.6 and the “cytotoxicity, Normal Human Kidney Cells, 48 hrs” value was 39.5.
In the case of B3, the “cytotoxicity, Normal Human Kidney Cells, 8 hrs” value is reported as 10.1, the “cytotoxicity, Normal Human Kidney Cells, 16 hrs” value is reported as 17.9 and the “cytotoxicity, Normal Human Kidney Cells, 24 hrs” value is reported as 17.2. The “cytotoxicity, Normal Human Kidney Cells, 32 hrs” value was 15.8, the “cytotoxicity, Normal Human Kidney Cells, 40 hrs” value was 10.2 and the “cytotoxicity, Normal Human Kidney Cells, 48 hrs” value was 14.

Target: T1, c-MET on human target cells
Assay: cell-based or functional assay
Remark: another data set of the same source
For B1, the “cytotoxicity, Normal Human Liver Cells, 8 hrs” value was 15.3, the “cytotoxicity, Normal Human Liver Cells, 16 hrs” value was 24.7 and the “cytotoxicity, Normal Human Liver Cells, 24 hrs” value was 31.8. For the same binder, the “cytotoxicity, Normal Human Liver Cells, 32 hrs” value was 34.8, the “cytotoxicity, Normal Human Liver Cells, 40 hrs” value was 34.8 and the “cytotoxicity, Normal Human Liver Cells, 48 hrs” value was 31.8.
In the case of B2, the “cytotoxicity, Normal Human Liver Cells, 8 hrs” value is reported as 15.1, the “cytotoxicity, Normal Human Liver Cells, 16 hrs” value is reported as 32.4 and the “cytotoxicity, Normal Human Liver Cells, 24 hrs” value is reported as 44. For the same binder, the “cytotoxicity, Normal Human Liver Cells, 32 hrs” value was 52.5, the “cytotoxicity, Normal Human Liver Cells, 40 hrs” value was 52.4 and the “cytotoxicity, Normal Human Liver Cells, 48 hrs” value was 53.6.
With B3 the “cytotoxicity, Normal Human Liver Cells, 8 hrs” value was 9.6, the “cytotoxicity, Normal Human Liver Cells, 16 hrs” value was 13.7 and the “cytotoxicity, Normal Human Liver Cells, 24 hrs” value was 18.1. For the same binder, the “cytotoxicity, Normal Human Liver Cells, 32 hrs” value was 22.3, the “cytotoxicity, Normal Human Liver Cells, 40 hrs” value was 22.5 and the “cytotoxicity, Normal Human Liver Cells, 48 hrs” value was 20.5.

What follows are binders tested against T2, AF647 labeled c-met protein (assay: flow cytometry, EC50 relative to parental Affy6 CAR-T cells (Round 2)).
Description: as §1, §2
In the case of B1, the “Fold Change” value is reported as 937 fold.
B2 was tested, and the “Fold Change” value was 167 fold.
In the case of B3, the “Fold Change” value is reported as 6900 fold.
